From US20250101135A1 (Hoffmann-La Roche, published 2025) come the findings set out here.

Assay [1] deals with T1, human CEA (CEACAM5) on tumor cells (human, UniProt P06731 35-685).
T1 construct: also called MKN45; MKN-45
T1 sequence: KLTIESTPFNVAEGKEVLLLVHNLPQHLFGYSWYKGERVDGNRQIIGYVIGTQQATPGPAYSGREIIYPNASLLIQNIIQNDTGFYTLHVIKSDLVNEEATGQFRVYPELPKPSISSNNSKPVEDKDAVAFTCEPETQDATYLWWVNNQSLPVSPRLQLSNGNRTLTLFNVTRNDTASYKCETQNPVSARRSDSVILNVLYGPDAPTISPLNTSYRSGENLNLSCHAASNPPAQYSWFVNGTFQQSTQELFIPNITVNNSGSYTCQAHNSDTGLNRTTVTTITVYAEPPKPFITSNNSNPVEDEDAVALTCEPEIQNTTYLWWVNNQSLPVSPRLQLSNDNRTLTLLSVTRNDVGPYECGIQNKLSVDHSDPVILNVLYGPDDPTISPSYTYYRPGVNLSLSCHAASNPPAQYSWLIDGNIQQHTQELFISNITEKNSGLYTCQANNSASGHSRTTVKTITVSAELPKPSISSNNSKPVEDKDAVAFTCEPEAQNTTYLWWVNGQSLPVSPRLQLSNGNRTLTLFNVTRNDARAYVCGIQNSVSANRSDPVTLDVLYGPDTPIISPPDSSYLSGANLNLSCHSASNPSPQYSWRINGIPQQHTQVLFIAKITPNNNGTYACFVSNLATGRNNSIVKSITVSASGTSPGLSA
The experiment in a line: flow cytometry on CEA-expressing MKN45 cells. In general terms: A flow cytometer gives signals particle by particle.

Assay [2] deals with T2, human CD19 on B cell lymphoma and leukemia cell lines (human, UniProt P15391 20-556).
T2 construct: also called SU-DHL-8; Nalm6
T2 sequence: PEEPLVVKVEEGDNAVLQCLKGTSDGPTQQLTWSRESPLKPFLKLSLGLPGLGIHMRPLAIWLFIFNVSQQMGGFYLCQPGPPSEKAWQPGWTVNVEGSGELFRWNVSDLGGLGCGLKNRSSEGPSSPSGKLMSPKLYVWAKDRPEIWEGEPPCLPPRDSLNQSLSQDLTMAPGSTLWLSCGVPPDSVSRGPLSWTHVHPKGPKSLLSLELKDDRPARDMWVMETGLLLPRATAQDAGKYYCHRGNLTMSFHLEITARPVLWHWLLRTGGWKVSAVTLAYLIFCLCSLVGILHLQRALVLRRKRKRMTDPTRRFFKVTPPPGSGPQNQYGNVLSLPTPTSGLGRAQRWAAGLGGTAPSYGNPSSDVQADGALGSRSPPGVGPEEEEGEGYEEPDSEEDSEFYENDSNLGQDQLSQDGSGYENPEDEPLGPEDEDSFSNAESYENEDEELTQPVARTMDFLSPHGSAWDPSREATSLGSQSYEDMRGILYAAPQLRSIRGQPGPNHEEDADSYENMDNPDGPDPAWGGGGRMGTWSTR
Kind of assay: flow cytometry on Nalm6 cells.

For assay [3], the target named is T2, human CD19 on B cell lymphoma and …. The experiment in a line: flow cytometry on Toledo cells.
The target of assay [4] is T3, human 4-1BB (CD137) on cells (human, UniProt Q07011 24-255).
T3 construct: whole, on cells; also called 4-1BB+CD8+; 4-1BB+CD4+
Kind of assay: flow cytometry, activated human PBMC, CD4+ T cells (panel title MFI CD4), PE anti-human IgG Fc secondary.

Assay [5] addresses T2, human CD19 on B cell lymphoma and …. The experiment in a line: flow cytometry on OCI-Ly18 cells.
The target is the same in assay [6]. The experiment in a line: flow cytometry on SU-DHL-8 cells.
In assay [7] the target is T4, monomeric human CD19 antigen Fc(kih) fusion molecule (human, UniProt P0DOX5 223-449 = IgG part).
T4 construct: also called monomeric CD19-Fc; human CD19-Fc(kih)
The experiment in a line: SPR Biacore T200, captured via anti-human Fab, human CD19-Fc(kih) analyte. (In general: Surface plasmon resonance follows binding to a sensor surface in real time, without labels.)

In assay [8] the target is T5, human CD19 (recombinant, form not given) (human, UniProt P15391 20-291, limits assumed).
T5 construct: also called huCD19
T5 sequence (looked up): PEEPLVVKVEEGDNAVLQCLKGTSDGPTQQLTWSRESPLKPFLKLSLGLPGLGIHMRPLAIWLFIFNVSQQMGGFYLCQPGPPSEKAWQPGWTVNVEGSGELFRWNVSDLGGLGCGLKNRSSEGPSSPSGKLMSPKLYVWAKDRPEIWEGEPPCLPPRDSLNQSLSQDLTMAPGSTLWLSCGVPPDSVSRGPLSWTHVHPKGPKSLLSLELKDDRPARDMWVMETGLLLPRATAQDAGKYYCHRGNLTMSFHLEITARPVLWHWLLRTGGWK
The experiment in a line: BIACORE (SPR), format not described.

Assay [9] has as its target T5, human CD19 (recombinant, form not …). Kind of assay: relative binding after incubation, method not described.
A further assay deals with T6, huCD19 ECD (human, UniProt P15391 20-291).
T6 construct: extracellular domain
T6 sequence (looked up): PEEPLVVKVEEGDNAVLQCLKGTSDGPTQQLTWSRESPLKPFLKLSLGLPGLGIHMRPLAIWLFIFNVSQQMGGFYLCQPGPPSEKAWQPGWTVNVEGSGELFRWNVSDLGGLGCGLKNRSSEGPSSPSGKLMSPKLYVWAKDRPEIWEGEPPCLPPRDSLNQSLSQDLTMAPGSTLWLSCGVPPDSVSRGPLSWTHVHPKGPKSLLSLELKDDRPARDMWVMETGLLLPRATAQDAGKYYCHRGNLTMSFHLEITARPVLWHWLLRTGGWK
The experiment in a line: binding to CD19 ECD, assay not described.

A further assay concerns the target T7, cyCD19 ECD (cynomolgus).
T7 construct: extracellular domain; also called cynomolgus CD19
Kind of assay: binding to CD19 ECD, assay not described.

T3 sequence (Q07011 24-255): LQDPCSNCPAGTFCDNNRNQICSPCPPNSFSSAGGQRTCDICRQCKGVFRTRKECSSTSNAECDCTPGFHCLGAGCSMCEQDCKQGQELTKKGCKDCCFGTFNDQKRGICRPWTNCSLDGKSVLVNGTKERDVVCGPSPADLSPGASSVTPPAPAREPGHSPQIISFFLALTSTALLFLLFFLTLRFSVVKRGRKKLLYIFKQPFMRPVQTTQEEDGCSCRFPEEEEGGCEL

B1: Humanized variant 1 of T84.66 IgG (T84.66-LCHA) (antibody, V domains shown)
VH: QVQLVQSGAEVKKPGSSVKVSCKASGFNIKDTYMHWVRQAPGQGLEWMGRIDPANGNSKYVPKFQGRVTITADTSTSTAYMELSSLRSEDTAVYYCAPFGYYVSDYAMAYWGQGTLVTVSS
VL: EIVLTQSPATLSLSPGERATLSCRAGESVDIFGVGFLHWYQQKPGQAPRLLIYRASNRATGIPARFSGSGSGTDFTLTISSLEPEDFAVYYCQQTNEDPYTFGQGTKLEIK
notes: IgG
A word on the EC50: it is the midpoint of the concentration-response curve. A lower EC50 goes with greater potency. The molecule B1 gave an EC50 in assay [1] of 1.5 µg/mL.

B2: anti-CD19(8B8-018) huIgG1 PGLALA (control G) (antibody, V domains shown)
VH: QVQLVQSGAEVKKPGASVKVSCKASGYTFTDYIMHWVRQAPGQGLEWMGYINPYNDGSKYTEKFQGRVTMTSDTSISTAYMELSRLRSDDTAVYYCARGTYYYGSALFDYWGQGTTVTVSS
VL: DIVMTQTPLSLSVTPGQPASISCKSSQSLENPNGNTYLNWYLQKPGQSPQLLIYRVSKRFSGVPDRFSGSGSGTDFTLKISRVEAEDVGVYYCLQLTHVPYTFGQGTKLEIKR
The term Kd denotes the free concentration of one partner at which half of the binding sites on the other are occupied at equilibrium, for simple one-to-one binding. As a reminder, the koff is the rate constant with which the complex falls apart. A high value points to fast dissociation. What is called kon is the second-order rate constant of association. Low readings indicate slower complex formation, high ones faster complex formation. On to B2, for which the EC50 in assay [2] stood at 0.1 nM; in assay [3], 0.06 nM; in [5], 0.07 nM; in [6], 0.09 nM. For the same molecule, the binding result in [4] was “no binding (tested: about 300 nM)”. In assay [7], this molecule gave a Kd of 12.3 nM. The same molecule returned a koff in assay [7] of 0.000261 s⁻¹. The kon in [7] amounted to 21200 M⁻¹ s⁻¹.

B3: humanized anti-human CD19 antibody var.9 (S27eP/N28S) (antibody, V domains shown)
VH: QVQLVQSGAEVKKPGASVKVSCKASGYTFTDYIMHWVRQAPGQGLEWMGYINPYNDGSKYTEKFQGRVTMTSDTSISTAYMELSRLRSDDTAVYYCARGTYYYGSALFDYWGQGTTVTVSS
VL: DIVMTQTPLSLSVTPGQPASISCKSSQSLENPSGNTYLNWYLQKPGQSPQLLIYRVSKRFSGVPDRFSGSGSGTDFTLKISRVEAEDVGVYYCLQLTHVPYTFGQGTKLEIK
notes: also called variant 9
For the molecule B3, in assay [8], the Kd worked out at 45 nM and the “t1/2” value turned out to be 4 min. Moreover, in assay [9], the “human CD19 binding after pH 6.0 incubation [%]” value worked out at 87%. Further, the EC50 in the assay with huCD19 ECD stood at 0.089 µg/mL. This molecule showed an EC50 in the assay with cyCD19 ECD of 0.435 µg/mL.

B4: humanized anti-human CD19 antibody var.5 (S27eP), named clone 8B8-018 (antibody, V domains shown)
VH: QVQLVQSGAEVKKPGASVKVSCKASGYTFTDYIMHWVRQAPGQGLEWMGYINPYNDGSKYTEKFQGRVTMTSDTSISTAYMELSRLRSDDTAVYYCARGTYYYGSALFDYWGQGTTVTVSS
VL: DIVMTQTPLSLSVTPGQPASISCKSSQSLENPNGNTYLNWYLQKPGQSPQLLIYRVSKRFSGVPDRFSGSGSGTDFTLKISRVEAEDVGVYYCLQLTHVPYTFGQGTKLEIK
notes: 5 is named clone 8B8-018; also called variant 5
Consider B4, for which, in [8], the Kd turned out to be 6 nM and the “t1/2” value came out at 43.6 min. Moreover, in [9], the “human CD19 binding after pH 6.0 incubation [%]” value was 99% and the “human CD19 binding after pH 7.4 incubation [%]” value came to 95%. In the assay with huCD19 ECD, this molecule came in with an EC50 of 0.084 µg/mL. Moreover, it took 0.255 µg/mL to reach a half-maximal effect with cyCD19 ECD (EC50).
